According to the RNAGym collection of RNA variant scans (doi:10.1073/pnas.2313332121):

B1: TPR t1 (parent)
chain: GACCAAUCUGCCCUCAGAGCUCGAGAACAUCUUCGGAUGCAGAGGAGGCAGGCUUCGGUGGCGCGAUAGCGCCAACGUCCUCAACCUCCAAUGCAUCCCACCACAUGAUGAUGCCUGAAGAGCCUUGGUUUUUUG

Variants of: B1
Assay: polymerase ribozyme fitness, log enrichment relative to wild type (log ratio); higher = more active; in vitro selection for triplet polymerase activity
Method in brief: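 Each subunit of a heterodimeric triplet polymerase ribozyme was mutagenized into a library by PCR, transcribed, and subjected to one round of in vitro selection, run in triplicate. Libraries were annealed with a biotinylated primer, the partner subunit and triplets, incubated frozen at −7 °C, and extended constructs were gel-excised, captured on streptavidin beads and recovered by RT-PCR. Input and output libraries were sequenced on Illumina, keeping genotypes with ≥10 input reads and ≥1 read per output. Fitness is log base 2 of genotype enrichment divided by wild-type enrichment, from inverse-variance-weighted replicate averages.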

Variant | polymerase ribozyme fitness (log ratio)
A6C C31G C34U G42U G93C A111C | -6.9
A24G A46G G57U A100C | -4
U32A C40U C101A | -4.24
C13U G71C | -0.732
C40A A46G U55A C99U G120A | -4.32
G52C C56G G71U | -3.4
G42A U96C | -2.41
G69U U130G | 0.642
C40A C82G | -1.95
C3U A50C C73A C85U G120U | -1.28
G44C G47U | -1.8
G47C U125G | -3.03
G57C G110A | -1.6
C8U A26G C49U G57C U112A | -0.963
G39U C40G | -3.47
C13A C101U | -2.13
A41G G45U C56G | -0.725
G63C A100U G110A C115G | -6.05
A6G G44C U112C | 0.311
G51A A68C C70G C102U G110A | -5.98
C8A U9G U87A | 0.00649

Variant | polymerase ribozyme fitness (log ratio)
C20A A37U A83C | -3.38
C56A C123G | 1.24
A103U C124G U131C | -2.6
C12G G19A C20U C98U | -3.29
G45U G47C C85A C88U | -4.69
U7G A66C G71U | -1.24
G60C C98G | -6.74
U112A G113A | -0.782
C15G C73A C88G | -3.31
A29U G52U U106C G117A A118U C124G | -1.91
A41U G45A C88A C115A U131A | -3.64
G61A C79U C104A C124A | 0.783
C3A G57A C114U | -4.29
U7A C101A | -1.43
U33A U59A G61U U106G | -5.96
G77A C101A | -1.18
C73U G117C | -2.95
G19U C20G G57U C70G C85U C101U U112G | -6.53
U7C C53G C56A G60A A111G | 0.682
G10U G42U G45A G61U C85U | -2.25
C13U G23A | -5.12

Variant | polymerase ribozyme fitness (log ratio)
A2G A43G | -2.05
A16G A50U U81G | -2.01
C15U G52U | -2.36
C34A A95U | -3.54
A91C A111C | -2.03
G61C U116C | -2.77
A41G G44C G63A C102U C124A G128A | -4.69
C82A U112A U131A | 1.09
C3U A90G | -0.86
G128U U130C | 0.0266
G69U A84U C124U | 1.84
A50C U116C | -1.32
G61U G113U | -1.12
A46U G48A U87A G120A U129C | -0.344
U38G A41U C62U | -3.01
C98U C115A | -2
C115U A118U | -1.41
C3U C88A | -1.53
G39A A90G | 0.17
C49U C70U | -1.33
G52A C86G | -0.287

Variant | polymerase ribozyme fitness (log ratio)
G42U A43G C123A | -1.31
G58A C124A | 2.39
C20A C104A | -3.99
G77A U112A | 0.751
G48C A74U | -0.843
U9G G45U | -0.0404
G120C U132C | 1.38
G51A A66U | -5.73
A46C C56U U78A A90G C94U A111C | 0.0877
C20G C73A C101U G113U | -0.556
C11U U59C G93A | -1.49
C8G A74C | 0.88
G10A C20U G65A C70A A91U C104G G120U | -6.74
C53U U132A | -0.215
A50G G63U A66G U130A | -4.03
A5G A6G C11U C28U G120U | -2.3
U14G G113C | -4.24
C22U C53G G61A U106A A118G | -5.66
G58C C98G G120C C123U | -6.14
U9A A84U U92A U116G U132C | -4.07
